# Source: patent publication US20250129143A1
# Key:
# K27 (human) [1] = experiment: immunoprecipitation from HCT-116 cell extract; gel region of 62 kDa or more; quantitative mass spectrometry with stable isotope-labeled peptides [panel A]
# K33 (human) [2] = experiment: as above
# K6 (human) [3] = experiment: as above
# K29 (human) [4] = experiment: as above
# K11 (human) [5] = experiment: as above
# K63 (human) [6] = experiment: as above
# [7] = target: polyubiquitinated substrates (HCT-116 cell extract); experiment: as above
# M1 (human) [8] = experiment: as above
# K48 (human) [9] = experiment: as above
# [10] = target: polyubiquitinated substrates (HCT-116 cell extract); experiment: immunoprecipitation (Halo tag-fused wild-type monobody) from HCT-116 cell extract; gel region of 62 kDa or more; quantitative mass spectrometry with stable isotope-labeled peptides [panel A]
# K27 (human) [11] = experiment: immunoprecipitation from HCT-116 cell extract; quantitative mass spectrometry; pie chart [panel B]
# K33 (human) [12] = experiment: as above
# K6 (human) [13] = experiment: as above
# K29 (human) [14] = experiment: as above
# K11 (human) [15] = experiment: as above
# K63 (human) [16] = experiment: as above
# M1 (human) [17] = experiment: as above
# K48 (human) [18] = experiment: as above
K27 chain-derived peptide in the immunoprecipitate (K27 (human) [1]),K33 chain-derived peptide in the immunoprecipitate (K33 (human) [2]),K6 chain-derived peptide in the immunoprecipitate (K6 (human) [3]),K29 chain-derived peptide in the immunoprecipitate (K29 (human) [4]),K11 chain-derived peptide in the immunoprecipitate (K11 (human) [5]),K63 chain-derived peptide in the immunoprecipitate (K63 (human) [6]),EST peptide (…) in the immunoprecipitate [7],total ubiquitin in the immunoprecipitate (EST + K63 peptides) [7],M1 chain-derived peptide in the immunoprecipitate (M1 (human) [8]),K48 chain-derived peptide in the immunoprecipitate (K48 (human) [9]),EST peptide (…) in the immunoprecipitate [10],total ubiquitin in the immunoprecipitate (EST + K63 peptides) [10],percentage of this chain among the 8 ubiquitin chain-derived peptides in the immunoprecipitate (control subtracted) (K27 (human) [11]),percentage of this chain among the 8 ubiquitin chain-derived peptides in the immunoprecipitate (control subtracted) (K33 (human) [12]),percentage of this chain among the 8 ubiquitin chain-derived peptides in the immunoprecipitate (control subtracted) (K6 (human) [13]),percentage of this chain among the 8 ubiquitin chain-derived peptides in the immunoprecipitate (control subtracted) (K29 (human) [14]),percentage of this chain among the 8 ubiquitin chain-derived peptides in the immunoprecipitate (control subtracted) (K11 (human) [15]),percentage of this chain among the 8 ubiquitin chain-derived peptides in the immunoprecipitate (control subtracted) (K63 (human) [16]),percentage of this chain among the 8 ubiquitin chain-derived peptides in the immunoprecipitate (control subtracted) (M1 (human) [17]),percentage of this chain among the 8 ubiquitin chain-derived peptides in the immunoprecipitate (control subtracted) (K48 (human) [18]),Substance
0.03 fmol,0 fmol,0 fmol,0 fmol,0.02 fmol,0 fmol,0.19 fmol,0.19 fmol,0 fmol,0.04 fmol,,,,,,,,,,,Control IgG (antibody)
,,,,,,,,,,12.3 fmol,13 fmol,,,,,,,,,wild-type Monobody (FN3) (designed binder)
0.08 fmol,0.11 fmol,1.32 fmol,20.1 fmol,1.65 fmol,2.47 fmol,72.1 fmol,74.5 fmol,0 fmol,21.8 fmol,,,0%,0%,3%,43%,3%,5%,0%,46%,"anti-ubiquitin antibody P4D1 (sc-8017, Santa Cruz)"
0.11 fmol,0.2 fmol,2.15 fmol,3.69 fmol,3.62 fmol,9.59 fmol,106 fmol,116 fmol,0.02 fmol,29.1 fmol,,,0%,0%,5%,8%,7%,20%,0%,60%,"anti-polyubiquitin monoclonal antibody FK2 (0918-2, Nippon Bio-Test)"
